From publication PMC9630439
Values joined by “and” are separate entries in the source; they are usually repeats but may differ in a detail not shown here. Equal entries are not always repeated.

Assays:
[1] = biological target: GPa3b17 TCR complex expressed without CD3-ζ (TCR-αβ/CD3-δγε2) (human) (UniProt P07766); assay: flow cytometry on cells; CHO cells transduced with lentivirus combinations, stained with Alexa Fluor 647-labelled gp100/HLA-A2, 30 min at 4 °C in the dark
[2] = biological target: fully assembled GPa3b17 TCR (TCRαβ/CD3δγε2ζ2 complex, CD3 cytosolic domains truncated, CD3-δ tagged with GFP2) (human) (UniProt P07766); assay: as above

median fluorescence intensity following pMHC staining [1]: 116000
median fluorescence intensity following pMHC staining [2]: 135000 and 144000
Substance: gp100/HLA-A2 (soluble gp100 peptide / HLA-A*02:01 / β2-microglobulin monomer with C-terminal HPC-4 epitope) (from UniProt P61769 22-119) (peptide-MHC)
